# From the DeepSol protein solubility set
# Experiment: soluble on expression in E. coli; label from the status in PepcDB or PDB records
row,Sequence,soluble on expression in E. coli
1,MGGSHHHHHHGMASALVKSRLNSWFQHRPPGASPERYLGLPGSLKWEDRGPSGQGQGQFLIQQVTLKIPISIEFVFESGSAQAGGNQALPRLAGSLLTQALESHAEGFRERFEKTFQLKEKGLSSGEQVLGQAALSGLLGGIGYFYGQGLVLPDIGVEGSEQKVDPALFPPVPLFTAVPSRSFFPRGFLWDEGFHQLVVQRWDPSLTREALGHWLGLLNADGWIGREQILGDEARARVPPEFLVQRAVHANPPTLLLPVAHMLEVGDPDDLAFLRKALPRLHAWFSWLHQSQAGPLPLSYRWRGRDPALPTLLNPKTLPSGLDDYPRASHPSVTERHLDLRCWVALGARVLTRLAEHLGEAEVAAELGPLAASLEAAESLDELHWAPELGVFADFGNHTKAVQLKPRPPQGLVRVVGRPQPQLQYVDALGYVSLFPLLLRLLDPTSSRLGPLLDILADSRHLWSPFGLRSLAASSSFYGQRNSEHDPPYWRGAVWLNVNYLALGALHHYGHLEGPHQARAAKLHGELRANVVGNVWRQYQATGFLWEQYSDRDGRGMGCRPFHGWTSLVLLAMAEDY,not soluble
2,MGHHHHHHENLYFQSHLYFQSHMDVAPLNLGMIAAYYYINYTTIELFSMSLNAKTKVRGLIEIISNAAEYENIPIRHHEDNLLRQLAQKVPHKLNNPKFNDPHVKTNLLLQAHLSRMQLSAELQSDTEEILSKAIRLIQACVDVLSSNGWLSPALAAMELAQMVTQAMWSKDSYLKQLPHFTSEHIKRCTDKGVESVFDIMEMEDEERNALLQLTDSQIADVARFCNRYPNIELSYEVVDKDSIRSGGPVVVLVQLEREEEVTGPVIAPLFPQKREEGWWVVIGDAKSNSLISIKRLTLQQKAKVKLDFVAPATGAHNYTLYFMSDAYMGCDQEYKFSVDVKEAETDSDSD,soluble
3,MGHHHHHHENLYFQSHLYFQSHMYHDRRRTGFRQYETYMKQKQSADWQLDELLEELEALETQLNSSNGGDQLLLGVSGIPASSSRENVKSISTLPPPPPALSYHQTPQQPQLLHHHNNHLGYQNGIHQITSINSAASSCSSPDGDSAFGDSSSTESSNNRCRNSAFSSNDSCRDSLNTPSPTQVSPRNGELNAEEAKAQKIRQALEKMKEAKVTKIFVKFFVEDGEALQLLIDERWTVADTLKQLAEKNHIALMEDHCIVEEYPELYIKRVYEDHEKVVENIQMWVQDSPNKLYFMRRPDKYAFISRPELYLLTPKTSDHMEIPSGDQWTIDVKQKFVSEYFHREPVVPPEMEGFLYLKSDGRKSWKKHYFVLRPSGLYYAPKSKKPTTKDLTCLMNLHSNQVYTGIGWEKKYKSPTPWCISIKLTALQMKRSQFIKYICAEDEMTFKKWLVALRIAKNGAELLENYERACQIRRETLGPASSMSAASSSTAISEVPHSLSHHQRTPSVASSIQLSSHMMNNPTHPLSVNVRNQSPASFSVNSCQQSHPSRTSAKLEIQYDEQPTGTIKRAPLDVLRRVSRASTSSPTIPQEESDSDEEFPAPPPVASVMRMPPPVTPPKPCTPLTSKKAPPPPPKRSDTTKLQSASPMAPAKNDLEAALARRREKMATMEC,not soluble
4,MGHHHHHHGGHMSLITVMNRIGVKPEFAAQFEESFRNRAGLVDGMPGFIRNEVLKPTKPGDPYIVLTYWQDEPSFRAWTESDEFKQGHARSGSLPHDAFTGRPVLEVHDVLLSSDNEGGS,soluble
5,MGHHHHHHHHHHSSGHIEGRHMIRLGYPCENLTLGATTNRTLRLAHLTEERVREKAAENLRDLERILRFNADHGFALFRIGQHLIPFASHPLFPYDWEGAYEEELARLGALARAFGQRLSMHPGQYVNPGSPDPEVVERSLAELRYSARLLSLIGAEDGVLVLHLGGAYGEKGKALRRFVENLRGEEEVLRYLALENDERLWNVEEVLKAAEALGVPVVVDTLHHALNPGRLPLEEALRLAFPTWRGRPRVHLASQDPKKRPGAHAFRVTREDWERLLSALPGPADVMVEAKGKEQGLATP,soluble
6,MGHHHHHHMPVVDSDGDAVQLNLGGNYPLYTIQSAAIGFRGGLSTLRKDACKSYVYEAPETDRGLPVGFSASATSQPVMQLGSRYKFSFSMPVPLICDTAWSIGKSETNGGISFQPITAGDYFYLNNFSWFEARSTEETGVYKLAACSCEFCKIACPEVGSFNVNGRTLLGIGGEHFTVQFQKFD,soluble
7,MGHHHHHHSHALKAGKTASGAGEVVRCLSEQSVAISRCAGGAGARLPALLDEQQVNVLLYDMNGCYSRLKELVPTLPQNRKVSKVEILQHVIDYIRDLQLELNSESEVGTPGGRGLPVRAPLSTLNGEISALTAEAACVPADDRILCR,not soluble
8,MGHHHHHHSHDDVIDKTLNYTRRKSNDIVYIGSLSKDKGVDILLELVKTFTKNGNDTIIHIVGKGLLYEKIFERIGEINKRVIYYGPQPLKRALQIASRASLGVVLTRPSYESLTTDPMKPKVYLAAHTPVILPEYFEISSYVNRFKAGMVVGKLKPSYILSKVKVALEDSNTLLKGAERLAKS,not soluble
9,MGHHHHHHSHGRLTLSAQHISHRPCLLSYSLLFWKVHHLFLEGFPCSPRLDEMSFHQFPQHPVHVSVVHLPIVYKGSMTQVSPH,not soluble
10,MGHHHHHHSHGTRSKLSRHGSGADSDYENTQSGDPLLGLEGKRFLELGKEEDFHPELESLDGDLDPGLPSTEDVILKTEQVTKNIQELLRAAQEFKHDSFVPCSEKIHLAVTEMASLFPKRPALEPVRSSLRLLNASAYRLQSECRKTVPPEPGAPVDFQLLTQQVIQCAYDIAKAAKQLVTITTREKKQ,soluble
11,MGHHHHHHSHKPDEDDANRLGEKVILREQVKELFNEKYGEALGLNRPVLVPYKLIRDSPDAVEVTGLPDDIPFRNPNTYDIHRLEKILKAREHVRMVIINQLQPFAEICNDAKVPAKDSSIPKRKRKRVSEGNSVSSSSSSSSSSSSNPDSVASANQISLVQWPMYMVDYAGLNVQLPGPLNY,not soluble
12,MGHHHHHHSHLKDNRVVTMEVEARNLDKKDFLGKSDPFLEFFRQGDGKWHLVYRSEVIKNNLNPTWKRFSVPVQHFCGGNPSTPIQVQCSDYDSDGSHDLIGTFHTSLAQLQAVP,not soluble
13,MGHHHHHHSHLPGNTRKMDKTTVLEKVIGFLQKHNEVSAQTEICDIQQDWKPSFLSNEEFTQLMLEALDGFIIAVTTDGSIIYVSDSITPLLGHLPSDVMDQNLLNFLPEQEHSEVYKILSSHMLVTDSPSP,soluble
14,MGHHHHHHSHMAIQVDKFNFESFPESPGEKGQFANPKQLEEERREARGLEIHSKLGICWRIPSLKRSGEASVEGLLNQLVLEHLQLAPLQWDVLVDGQPCDREAVAACQVGDPVRLEVRLTNRSPRSVGPFALTVVPFQDHQNGVHNYDLHDTVSFVGSSTFYLDAVQPSGQSACLGALLFLYTGDFFLHIRFHEDSTSKELPPSWFCLPSVHVCALEAQA,not soluble
15,MGHHHHHHSHMANSAGSMANSAGSPGSLFRFAVPPALGSNLTDNVMITVDIIPSGWNSADGKSDKTKSAPSRDPERLQKIKESLLLEDSEEEEGDLCRICQMAAASSSNLLIEPCKCTGSLQYVHQDCMKKWLQAKINSGSSLEAVTTCELCKEKLELNLEDFDIHELHRAHANEQAEYEFISSGLYLVVLLHLCEQSFSDMMGNTNEPSTRVRFINLARTLQAHMEDLETSEDDSEEDGDHNRTFDIA,soluble
16,MGHHHHHHSHMANSMANSMNNRTRLALIICNTEFDHLPPRNGADFDITGMKELLEGLDYSVDVEENLTARDMESALRAFATRPEHKSSDSTFLVLMSHGILEGICGTVHDEKKPDVLLYDTIFQIFNNRNCLSLKDKPKVIIVQACRGANRGELWVRDSPASLEVASSQSSENLEEDAVYKTHVEKDFIAFCSSTPHNVSWRDSTMGSIFITQLITCFQKYSWCCHLEEVFRKVQQSFETPRAKAQMPTIERLSMTRYFYLFPGN,not soluble
17,MGHHHHHHSHMASGFIEIANKQGLTATLLPFGATLAKLTFPDKNGKNQDLVLGFDTIDEFEKDAASIGKTVGRVANRIKNSTLHFDGKQYTMTPNNGPHYLHGGPNGLGYRKWEVVRHAPESVSFSVRANEQDDGLPGDAKIDVTYTVNDRNQLIIEHHATCDTPGLLALTNHAYWNLDGSDTVAEHFLEMEADEFVEVDDTFCPTGAIRSVTDTGFDFRSGKQLKESGKDAEELLDLDNDLVITKKTPPSTPSTYLRFWSEKSGIELSITTSYPVIHLYASKFLDCKGKKGEHYKANKALAIEPQFHSAAPNFDHFPDVSLRPGDHYCQEIVYTFSHVN,soluble
18,MGHHHHHHSHMCNGSFTEKLKLLFKLHIPPAYTEVKSKDASKGDELSKEELLYFSQLHVSKPANEKEAESAKHSPEKGKGKIDIQAYLSQWQDELFKKEENIKDLPRMNQSQFIQFSKTLYNLFHEDPEEESLYQAIAVVTSLLLRMEEVGRKLHSPTSSAKGFSGTVCGSGGPSEEKTGSHLEKDPCSFREEPQWSFAFEQILASLLNEPALVRFFEKPIDVKAKLENARISQLRSRTKM,soluble
19,MGHHHHHHSHMDPEVTLLLQCPGGGLPQEQIQAELSPAHDRRPLPGGDEAITAIWETRLKAQPWLFDAPKFRLHSATLAPIGSRGPQLLLRLGLTSYRDFLGTNWSSSAAWLRQQGATDWGDTQAYLADPLGVGAALATADDFLVFLRRSRQVAEAPGLVDVPGGHPEPQALCPGGSPQHQDLAGQLVVHELFSSVLQEICDEVNLPLLTLSQPLLLGIARNETSAGRASAEFYVQCSLTSEQVRKHYLSGGPEAHESTGIFFVETQNVRRLPETEMWAELCPSAKGAIILYNRVQGSPTGAALGSPALLPPL,not soluble
20,MGHHHHHHSHMDVPYLINCLVFLFCFSKSNEHSSEYPFVRDLSLEGRLLAKNICTFNIHIHIYTHFFLRQRFTLSPRLKCSGMIIVHCSLYLLGSSNPPT,not soluble
21,MGHHHHHHSHMEHPLEMPICAFQLPDLTVYNEDFRSFIERDLIEQSMLVALEQAGRLNWWVSVDPTSQRLLPLATTGDGNCLLHAASLGMWGFHDRDLMLRKALYALMEKGVEKEALKRRWRWQQTQQNKESGLVYTEDEWQKEWNELIKLASSEPRMHLGTNGANCGGVESSEEPVYESLEEFHVFVLAHVLRRPIVVVADTMLRDSGGEAFAPIPFGGIYLPLEVPASQCHRSPLVLAYDQAHFSALVSMEQKENTKEQAVIPLTDSEYKLLPLHFAVDPGKGWEWGKDDSDNVRLASVILSLEVKLHLLHSYMNVKWIPLSS,soluble
22,MGHHHHHHSHMEKCSVGGLELTEQTPALLGNMAMATSLMDIGDSFGHPACPLVSRSRNSPVEDDDDDDDVVFIESIQPPSISAPAIADQRNFIFASSKNEKPQGNYSVIPPSSRDLASQKGNISETIVIDDEEDIETNGGAEKKSSCFIEWGLPGTKNKTNDLDFSTSSLSRSKVNAGMGNSGITTELTLKYIITNVTTLETGISSVNAGQDVNIIITYKTSL,not soluble
23,MGHHHHHHSHMIVNVIGAGLAGSEVAYNLGKRGIRVRLFEMRPKKMTEVHKTGYFAELVCSNSLKSEDITNAEGLLKAEMRLMGSITLEAAEKARVPSGKALAVDRNIFAKEVTEVIERLESVEIIREEVTEFDPEEGIWVVATGPATSDGLLPFLKKLLGDDLLFFFDAVSPIVTFESIDMECAFWGDRFGKGKDYINCPLTKEEYEEFWKALVEAEVIEMEDFDRKLLFERCQPIEEIARSGKDALRYGPLRPTGLVDPRTGKEPYAVVQLRREDKEGRFYSLVGFQTRLKWSEQKRVLRKIPCLRNAEIVRYGVMHRNVYINSPKLLDIFFRLKKHPNIFFAGQITGVEGYMESAASGIYVAYNVHRILKGLSPLKLPEETMMGALFSYIIEKVEGDLKPMYANFGLLPPLKVRVKDKFEKRKKLAERAIETMKKFLEENPW,soluble
24,MGHHHHHHSHMKAEGKKPISKIPKKGFVEVTELTDVTYTSNLVRLRPGHMNVVLILSNSTKTSLLQKFALEVYTFTGSSCLHFSFLSLDKHREWLEYLLEFAQDAAPIPNQYDKHFMERDYTGYVLALNGHKKYFCLFKPQKTVEEEEAIGSCSDVDSSLYLGESRGKPSCGLGSRPIKGKLSKLSLWMERLLEGSLQRFYIPSWPELD,not soluble
